Data on five molecules can be found in PMC8755542, “HELQ is a dual-function DSB repair enzyme modulated by RPA and RAD51” (Nature, 2021).

Residue numbers refer to the chain shown, from its start. In names and notes the source's numbering stands.

In series [1] the target is T1, HELQ;RPA-eGFP (human;human, UniProt Q8TDG4;P27694;P15927;P35244 1-1101;1-616;1-270;1-121, |). The series is described as follows: single-molecule oligo capture; capture on RPA-eGFP-coated lambda ssDNA; dwell time 134 s; EMSA: 25 mM Tris-HCl pH 8.0, 2 mM ATP, 2 mM MgCl2, 1 mM DTT, 50 mM NaCl, 0.1 mg/ml BSA, 25 nM DNA, 10 min 37 C (20 min for RAD51 +/- HELQ); single-molecule at room temperature in similar buffer. The conditions noted are these: protein: recombinant;recombinant; tags: C-terminal Flag; N-terminal MBP removed with PreScission;eGFP; copies: 1;1;1;1; label: 5' Cy3; single strand. In general terms: A gel shift assay detects complexes by their altered migration in electrophoresis.
T1 sequence (P27694 whole entry, chain 2 of 3): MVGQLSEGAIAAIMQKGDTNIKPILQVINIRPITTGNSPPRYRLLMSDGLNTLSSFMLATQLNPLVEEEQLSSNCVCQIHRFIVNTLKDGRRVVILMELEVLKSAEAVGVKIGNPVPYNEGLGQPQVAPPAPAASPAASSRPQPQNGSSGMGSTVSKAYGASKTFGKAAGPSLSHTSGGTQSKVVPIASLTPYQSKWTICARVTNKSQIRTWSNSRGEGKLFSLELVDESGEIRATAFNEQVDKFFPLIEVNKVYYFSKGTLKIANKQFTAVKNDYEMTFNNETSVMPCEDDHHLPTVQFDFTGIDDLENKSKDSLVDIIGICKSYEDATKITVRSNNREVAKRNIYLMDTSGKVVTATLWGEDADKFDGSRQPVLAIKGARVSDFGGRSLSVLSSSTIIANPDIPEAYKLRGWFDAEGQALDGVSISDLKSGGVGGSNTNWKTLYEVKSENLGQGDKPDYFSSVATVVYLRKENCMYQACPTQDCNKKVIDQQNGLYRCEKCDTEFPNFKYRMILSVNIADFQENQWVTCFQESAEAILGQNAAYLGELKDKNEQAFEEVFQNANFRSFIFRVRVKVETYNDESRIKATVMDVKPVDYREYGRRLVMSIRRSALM
T1 sequence (P15927 whole entry, chain 3 of 3): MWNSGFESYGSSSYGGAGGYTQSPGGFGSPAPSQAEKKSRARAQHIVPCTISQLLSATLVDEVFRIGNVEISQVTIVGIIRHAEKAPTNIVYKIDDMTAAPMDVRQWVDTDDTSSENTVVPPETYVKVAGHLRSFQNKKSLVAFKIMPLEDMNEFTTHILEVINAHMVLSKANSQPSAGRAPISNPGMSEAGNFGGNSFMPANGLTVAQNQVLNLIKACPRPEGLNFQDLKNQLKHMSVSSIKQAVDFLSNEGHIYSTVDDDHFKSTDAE
T1 sequence (P35244 whole entry, chain 4 of 3): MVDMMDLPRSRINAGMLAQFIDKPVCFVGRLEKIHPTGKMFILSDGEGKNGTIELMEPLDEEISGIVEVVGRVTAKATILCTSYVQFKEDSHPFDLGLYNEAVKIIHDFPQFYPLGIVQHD

The next series concerns the target HELQ(K365M);RPA-eGFP (human;human, UniProt Q8TDG4;P27694;P15927;P35244 1-1101;1-616;1-270;1-121, K365M|). Put plainly: single-molecule oligo capture; capture on RPA-eGFP-coated lambda ssDNA; dwell time 179 s; EMSA: 25 mM Tris-HCl pH 8.0, 2 mM ATP, 2 mM MgCl2, 1 mM DTT, 50 mM NaCl, 0.1 mg/ml BSA, 25 nM DNA, 10 min 37 C (20 min for RAD51 +/- HELQ); single-molecule at room temperature in similar buffer. The note with it: protein: recombinant;recombinant; tags: C-terminal Flag; N-terminal MBP removed with PreScission;eGFP; copies: 1;1;1;1; label: 5' Cy3; single strand.

Series [2] addresses T2, HELQ(K365M) (human, UniProt Q8TDG4 1-1101, K365M).
T2 sequence: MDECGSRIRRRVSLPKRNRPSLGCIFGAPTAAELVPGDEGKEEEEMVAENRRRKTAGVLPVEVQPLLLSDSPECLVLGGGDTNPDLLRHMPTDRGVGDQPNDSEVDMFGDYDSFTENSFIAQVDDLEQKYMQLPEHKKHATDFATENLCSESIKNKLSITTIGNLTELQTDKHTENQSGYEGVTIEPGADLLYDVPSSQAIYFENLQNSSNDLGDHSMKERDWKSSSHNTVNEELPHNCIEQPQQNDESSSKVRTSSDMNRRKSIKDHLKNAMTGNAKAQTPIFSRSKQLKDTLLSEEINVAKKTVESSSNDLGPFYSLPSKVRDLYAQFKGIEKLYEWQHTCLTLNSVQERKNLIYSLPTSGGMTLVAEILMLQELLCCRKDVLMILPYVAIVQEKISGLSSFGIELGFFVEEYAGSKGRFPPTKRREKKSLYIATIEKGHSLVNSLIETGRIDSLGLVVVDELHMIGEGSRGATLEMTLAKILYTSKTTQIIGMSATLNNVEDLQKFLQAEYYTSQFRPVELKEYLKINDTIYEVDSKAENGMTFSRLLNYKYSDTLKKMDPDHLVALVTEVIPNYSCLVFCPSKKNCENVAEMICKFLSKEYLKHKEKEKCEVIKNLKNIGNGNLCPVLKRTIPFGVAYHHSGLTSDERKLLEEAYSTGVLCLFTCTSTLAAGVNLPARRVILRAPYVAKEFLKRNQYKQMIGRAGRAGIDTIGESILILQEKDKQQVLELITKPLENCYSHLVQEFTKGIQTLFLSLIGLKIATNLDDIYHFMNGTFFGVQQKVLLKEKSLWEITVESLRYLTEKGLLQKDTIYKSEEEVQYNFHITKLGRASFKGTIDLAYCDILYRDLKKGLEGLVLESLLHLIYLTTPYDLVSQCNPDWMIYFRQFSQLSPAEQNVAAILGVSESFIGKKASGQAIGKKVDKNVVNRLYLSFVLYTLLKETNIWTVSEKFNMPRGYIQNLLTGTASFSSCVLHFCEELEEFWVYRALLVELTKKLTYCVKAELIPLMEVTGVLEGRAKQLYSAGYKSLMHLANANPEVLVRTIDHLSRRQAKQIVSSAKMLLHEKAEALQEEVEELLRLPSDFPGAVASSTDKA
The series is described as follows: EMSA; 2 mM ATP, 2 mM Mg2+; EMSA: 25 mM Tris-HCl pH 8.0, 2 mM ATP, 2 mM MgCl2, 1 mM DTT, 50 mM NaCl, 0.1 mg/ml BSA, 25 nM DNA, 10 min 37 C (20 min for RAD51 +/- HELQ); single-molecule at room temperature in similar buffer. The conditions noted are these: protein: recombinant, tags: C-terminal Flag, N-terminal MBP removed with PreScission.

Series [3] addresses T3, HELQ(K365M) (human, UniProt Q8TDG4 1-1101, K365M).
T3 construct: human HELQ helicase with the helicase-dead mutation K365M, made from pFB-MBP-HELQ-Flag by site-directed mutagenesis; also called helicase-dead HELQ; HELQ KM; source: Sf9 insect cells, purified (same procedure as wild-type HELQ); not shown: MBP, N-terminal, cleaved
T3 sequence (looked up): T2 sequence
Put plainly: single-molecule imaging (optical tweezers with confocal microscopy, C-Trap); gapped λ-DNA held between beads at constant force of 50 pN; 25 nM Alx–RAD51 with or without 50 nM HELQ or HELQ(K365M) in 1× HELQ buffer (25 mM Tris-HCl pH 8.0, 2 mM MgCl2, 50 mM NaCl), 2 mM ATP, 0.2 mg/ml BSA, 1 mM DTT; room temperature; kymographs of Alx–RAD51. The note with it: both partners purified.

Series [4] addresses T4, HELQ (wild type, purified recombinant human HELQ) (human, UniProt Q8TDG4 1-1101).
T4 construct: human HELQ helicase; custom HELQ ORF (GeneArt); Eluted from Flag resin with 3xFlag peptide; no removal of the Flag tag is described; also called HELQ WT; WT HELQ; source: Sf9 insect cells, purified (amylose, PreScission cleavage of MBP, anti-Flag resin); not shown: MBP, N-terminal, cleaved
T4 sequence (looked up): T2 sequence with M365K
The description is as above. The note with it: both partners purified.

In series [5] the target is T1, HELQ;RPA-eGFP. Put plainly: single-molecule oligo capture; capture on RPA-eGFP-coated lambda ssDNA; EMSA: 25 mM Tris-HCl pH 8.0, 2 mM ATP, 2 mM MgCl2, 1 mM DTT, 50 mM NaCl, 0.1 mg/ml BSA, 25 nM DNA, 10 min 37 C (20 min for RAD51 +/- HELQ); single-molecule at room temperature in similar buffer. The conditions noted are these: protein: recombinant;recombinant; tags: C-terminal Flag; N-terminal MBP removed with PreScission;eGFP; copies: 1;1;1;1; label: Cy3 (5' in oligo list, 3' in capture assay); single strand.

For another series, the target named is HELQ;RPA-mRFP1 (human;human, UniProt Q8TDG4;P27694;P15927;P35244 1-1101;1-616;1-270;1-121, |). Put plainly: pull-down; via biotin-dT43 on streptavidin beads; 82 nM RPA, fusion not stated; EMSA: 25 mM Tris-HCl pH 8.0, 2 mM ATP, 2 mM MgCl2, 1 mM DTT, 50 mM NaCl, 0.1 mg/ml BSA, 25 nM DNA, 10 min 37 C (20 min for RAD51 +/- HELQ); single-molecule at room temperature in similar buffer. The conditions noted are these: protein: recombinant;recombinant; tags: C-terminal Flag; N-terminal MBP removed with PreScission;mRFP1; copies: 1;1;1;1; label: Cy3 (5' in oligo list, 3' in capture assay); single strand.
Chain of HELQ;RPA-mRFP1 (P27694 whole entry, chain 2 of 3, the tested form may be a part): as the sequence (P27694 whole entry, chain 2 of 3) above
Chain of HELQ;RPA-mRFP1 (P15927 whole entry, chain 3 of 3, the tested form may be a part): as the sequence (P15927 whole entry, chain 3 of 3) above
Chain of HELQ;RPA-mRFP1 (P35244 whole entry, chain 4 of 3, the tested form may be a part): as the sequence (P35244 whole entry, chain 4 of 3) above

The target of the next series is HELQ(K365M);RPA-mRFP1 (human;human, UniProt Q8TDG4;P27694;P15927;P35244 1-1101;1-616;1-270;1-121, K365M|). The series is described as follows: pull-down; via biotin-dT43 on streptavidin beads; RPA fusion not stated; EMSA: 25 mM Tris-HCl pH 8.0, 2 mM ATP, 2 mM MgCl2, 1 mM DTT, 50 mM NaCl, 0.1 mg/ml BSA, 25 nM DNA, 10 min 37 C (20 min for RAD51 +/- HELQ); single-molecule at room temperature in similar buffer. The conditions noted are these: protein: recombinant;recombinant; tags: C-terminal Flag; N-terminal MBP removed with PreScission;mRFP1; copies: 1;1;1;1; label: Cy3 (5' in oligo list, 3' in capture assay); single strand.
Chain of HELQ(K365M);RPA-mRFP1 (P27694 whole entry, chain 2 of 3, the tested form may be a part): as the sequence (P27694 whole entry, chain 2 of 3) above
Chain of HELQ(K365M);RPA-mRFP1 (P15927 whole entry, chain 3 of 3, the tested form may be a part): as the sequence (P15927 whole entry, chain 3 of 3) above
Chain of HELQ(K365M);RPA-mRFP1 (P35244 whole entry, chain 4 of 3, the tested form may be a part): as the sequence (P35244 whole entry, chain 4 of 3) above

Chain of HELQ(K365M);RPA-eGFP (P27694 whole entry, chain 2 of 3): as the sequence (P27694 whole entry, chain 2 of 3) above
Chain of HELQ(K365M);RPA-eGFP (P15927 whole entry, chain 3 of 3): as the sequence (P15927 whole entry, chain 3 of 3) above
Chain of HELQ(K365M);RPA-eGFP (P35244 whole entry, chain 4 of 3): as the sequence (P35244 whole entry, chain 4 of 3) above

B1: lambda4 80-mer (ssDNA)
DNA: CCTGAACGACCAGGCGTCTTCGTTCATCTATCGGATCGCCACACTCACAACAATGAGTGGCAGATATAGCCTGGTGGTTC
Turning to B1, the binding result in the series with HELQ;RPA-eGFP [1] and in the series with HELQ(K365M);RPA-eGFP was “binds” each time. Regarding AGCTACCATGCCTGCACGAATTAAGCAATTCGTAATCATGGTCATAGCT (ssDNA) [ssDNA (oligo 1)], the binding result with HELQ(K365M) [2] (label: 5' FITC, single strand 49 nt) was “binds”.

B2: dsDNA (oligo 1 + oligo 2) (dsDNA)
DNA 1: AGCTACCATGCCTGCACGAATTAAGCAATTCGTAATCATGGTCATAGCT
DNA 2: AGCTATGACCATGATTACGAATTGCTTAATTCGTGCAGGCATGGTAGCT
As to B2, in the series with HELQ(K365M) [2] (label: 5' FITC on strand 1, blunt 49 bp), the binding result is “binds”.

B3: Alx–RAD51 (RAD51(C319S) labelled with Alexa Fluor 488 C5 maleimide) (natural protein, human, UniProt Q06609 1-339, looked up)
chain: MAMQMQLEANADTSVEEESFGPQPISRLEQCGINANDVKKLEEAGFHTVEAVAYAPKKELINIKGISEAKADKILAEAAKLVPMGFTTATEFHQRRSEIIQITTGSKELDKLLQGGIETGSITEMFGEFRTGKTQICHTLAVTCQLPIDRGGGEGKAMYIDTEGTFRPERLLAVAERYGLSGSDVLDNVAYARAFNTDHQTQLLYQASAMMVESRYALLIVDSATALYRTDYSGRGELSARQMHLARFLRMLLRLADEFGVAVVITNQVVAQVDGAAMFAADPKKPIGGNIIAHASTTRLYLRKGRGETRICKIYDSPSLPEAEAMFAINADGVGDAKD
modifications: Alexa Fluor 488 C5 maleimide label (1:1 labelling stoichiometry; labelled residue not given)
notes: human RAD51 recombinase with the mutation C319S; also called RAD51(A488); source: E. coli, purified as WT RAD51, then labelled and separated from free dye (Zeba column)
As to B3, the binding result (with HELQ(K365M) [3]; in series [4]) was “binds” in each case.

B4: dT79 (ssDNA)
DNA: TTTTTTTTTTTTTTTTTTTTTTTTTTTTTTTTTTTTTTTTTTTTTTTTTTTTTTTTTTTTTTTTTTTTTTTTTTTTTTT
B4: the binding result in the series with HELQ;RPA-eGFP [5], with HELQ;RPA-mRFP1 and with HELQ(K365M);RPA-mRFP1 was “binds” in each case.
